Experimental data: the supplement of paper PMC10724198
± gives the standard deviation of the averaged measurements.

Experiments:
Saccharomyces cerevisiae [1] = assay: protein stability index of tFT-peptide fusion (C-terminal peptide) (PSI (0-1 scale)); higher = more stable (slower turnover)
Description: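 MPS profiling in S. cerevisiae of the tFT-X12 degron library: putative degron peptides plus stable controls, 12 aa, fused to the C-terminus of a sfGFP-mCherry timer. Cells are FACS-sorted into 8 mCherry/sfGFP bins and deep-sequenced. PSI runs from 0 (unstable) to 1 (stable). Backgrounds are wild type, das1Δ and doa10Δ at 30 °C, and wild type, das1Δ, cdc34-1 and cdc53-1 at 37 °C; 2-3 technical replicates each.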

Saccharomyces cerevisiae [2] = assay: as above; conditions: genetic background: wild type; temperature: 30 C
[3] = genetic background: cdc34-1, temperature: 37 C
[4] = genetic background: cdc53-1, temperature: 37 C
[5] = genetic background: das1 deletion, temperature: 30 C
[6] = genetic background: das1 deletion, temperature: 37 C
[7] = genetic background: doa10 deletion, temperature: 30 C
[8] = genetic background: wild type, temperature: 30 C
[9] = genetic background: wild type, temperature: 37 C
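Further: PSI is a weighted mean of sequencing reads over stability bins, variants kept only with over 10 reads, mCherry proximal and sfGFP distal, peptide attached via GGGS linker.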

Sequence: NCVDRFKGQKRM
- protein stability index (Saccharomyces cerevisiae [1]; [3]): 0.655 ± 0.055
- protein stability index (Saccharomyces cerevisiae [1]; [4]): 0.723 ± 0.029
- protein stability index (Saccharomyces cerevisiae [1]; [5]): 0.64 ± 0.027
- protein stability index (Saccharomyces cerevisiae [1]; [6]): 0.711 ± 0.0013
- protein stability index (Saccharomyces cerevisiae [1]; [7]): 0.422 ± 0.021
- protein stability index (Saccharomyces cerevisiae [1]; [8]): 0.491 ± 0.023
- protein stability index (Saccharomyces cerevisiae [1]; [9]): 0.6341 ± 0.0052
- protein stability index (Saccharomyces cerevisiae [2]): 0.505 ± 0.031

Sequence: NFFIQFHNLLFP
- protein stability index (Saccharomyces cerevisiae [1]; [3]): 0.754 ± 0.017
- protein stability index (Saccharomyces cerevisiae [1]; [4]): 0.765 ± 0.037
- protein stability index (Saccharomyces cerevisiae [1]; [5]): 0.664 ± 0.0089
- protein stability index (Saccharomyces cerevisiae [1]; [6]): 0.769 ± 0.022
- protein stability index (Saccharomyces cerevisiae [1]; [7]): 0.653 ± 0.017
- protein stability index (Saccharomyces cerevisiae [1]; [8]): 0.6712 ± 0.0036
- protein stability index (Saccharomyces cerevisiae [1]; [9]): 0.774 ± 0.027
- protein stability index (Saccharomyces cerevisiae [2]): 0.718 ± 0.0086

Sequence: NGLVCVFILSWY
- protein stability index (Saccharomyces cerevisiae [1]; [3]): 0.202 ± 0.022
- protein stability index (Saccharomyces cerevisiae [1]; [4]): 0.261 ± 0.1
- protein stability index (Saccharomyces cerevisiae [1]; [5]): 0.234 ± 0.038
- protein stability index (Saccharomyces cerevisiae [1]; [6]): 0.437 ± 0.011
- protein stability index (Saccharomyces cerevisiae [1]; [7]): 0.21 ± 0.012
- protein stability index (Saccharomyces cerevisiae [1]; [8]): 0.238 ± 0.033
- protein stability index (Saccharomyces cerevisiae [1]; [9]): 0.375 ± 0.0047
- protein stability index (Saccharomyces cerevisiae [2]): 0.375 ± 0.031

Sequence: NLFVFLSYLFNV
- protein stability index (Saccharomyces cerevisiae [1]; [3]): 0.603 ± 0.051
- protein stability index (Saccharomyces cerevisiae [1]; [4]): 0.66 ± 0.0075
- protein stability index (Saccharomyces cerevisiae [1]; [5]): 0.563 ± 0.013
- protein stability index (Saccharomyces cerevisiae [1]; [6]): 0.7168 ± 0.0052
- protein stability index (Saccharomyces cerevisiae [1]; [7]): 0.336 ± 0.035
- protein stability index (Saccharomyces cerevisiae [1]; [8]): 0.34 ± 0.014
- protein stability index (Saccharomyces cerevisiae [1]; [9]): 0.484 ± 0.013
- protein stability index (Saccharomyces cerevisiae [2]): 0.422 ± 0.022

Sequence: NLVCLDPFLVFV
- protein stability index (Saccharomyces cerevisiae [1]; [3]): 0.582 ± 0.027
- protein stability index (Saccharomyces cerevisiae [1]; [4]): 0.612 ± 0.011
- protein stability index (Saccharomyces cerevisiae [1]; [5]): 0.478 ± 0.018
- protein stability index (Saccharomyces cerevisiae [1]; [6]): 0.613 ± 0.0077
- protein stability index (Saccharomyces cerevisiae [1]; [7]): 0.475 ± 0.026
- protein stability index (Saccharomyces cerevisiae [1]; [8]): 0.472 ± 0.025
- protein stability index (Saccharomyces cerevisiae [1]; [9]): 0.5835 ± 0.003
- protein stability index (Saccharomyces cerevisiae [2]): 0.581 ± 0.22

Sequence: NMVSMVVVIFGV
- protein stability index (Saccharomyces cerevisiae [1]; [3]): 0.248 ± 0.014
- protein stability index (Saccharomyces cerevisiae [1]; [4]): 0.37 ± 0.1
- protein stability index (Saccharomyces cerevisiae [1]; [5]): 0.23 ± 0.039
- protein stability index (Saccharomyces cerevisiae [1]; [6]): 0.437 ± 0.024
- protein stability index (Saccharomyces cerevisiae [1]; [7]): 0.196 ± 0.021
- protein stability index (Saccharomyces cerevisiae [1]; [8]): 0.24 ± 0.02
- protein stability index (Saccharomyces cerevisiae [1]; [9]): 0.386 ± 0.016
- protein stability index (Saccharomyces cerevisiae [2]): 0.275 ± 0.015

Sequence: NNQIQKKMYQTN
- protein stability index (Saccharomyces cerevisiae [1]; [3]): 0.585 ± 0.022
- protein stability index (Saccharomyces cerevisiae [1]; [4]): 0.778 ± 0.018
- protein stability index (Saccharomyces cerevisiae [1]; [5]): 0.667 ± 0.019
- protein stability index (Saccharomyces cerevisiae [1]; [6]): 0.737 ± 0.012
- protein stability index (Saccharomyces cerevisiae [1]; [7]): 0.179 ± 0.025
- protein stability index (Saccharomyces cerevisiae [1]; [8]): 0.198 ± 0.05
- protein stability index (Saccharomyces cerevisiae [1]; [9]): 0.473 ± 0.051
- protein stability index (Saccharomyces cerevisiae [2]): 0.35 ± 0.022

Sequence: NWAIEIRSVKIV
- protein stability index (Saccharomyces cerevisiae [1]; [3]): 0.642 ± 0.066
- protein stability index (Saccharomyces cerevisiae [1]; [4]): 0.701 ± 0.022
- protein stability index (Saccharomyces cerevisiae [1]; [5]): 0.619 ± 0.04
- protein stability index (Saccharomyces cerevisiae [1]; [6]): 0.7084 ± 0.007
- protein stability index (Saccharomyces cerevisiae [1]; [7]): 0.148 ± 0.0038
- protein stability index (Saccharomyces cerevisiae [1]; [8]): 0.183 ± 0.021
- protein stability index (Saccharomyces cerevisiae [1]; [9]): 0.303 ± 0.015
- protein stability index (Saccharomyces cerevisiae [2]): 0.261 ± 0.025

Sequence: NYCVFLSYLLFC
- protein stability index (Saccharomyces cerevisiae [1]; [3]): 0.362 ± 0.044
- protein stability index (Saccharomyces cerevisiae [1]; [4]): 0.424 ± 0.025
- protein stability index (Saccharomyces cerevisiae [1]; [5]): 0.318 ± 0.027
- protein stability index (Saccharomyces cerevisiae [1]; [6]): 0.502 ± 0.0072
- protein stability index (Saccharomyces cerevisiae [1]; [7]): 0.205 ± 0.012
- protein stability index (Saccharomyces cerevisiae [1]; [8]): 0.215 ± 0.033
- protein stability index (Saccharomyces cerevisiae [1]; [9]): 0.3961 ± 0.0034
- protein stability index (Saccharomyces cerevisiae [2]): 0.301 ± 0.0096

Sequence: NYFRPWLIFHKC
- protein stability index (Saccharomyces cerevisiae [1]; [3]): 0.684 ± 0.021
- protein stability index (Saccharomyces cerevisiae [1]; [4]): 0.749 ± 0.012
- protein stability index (Saccharomyces cerevisiae [1]; [5]): 0.632 ± 0.05
- protein stability index (Saccharomyces cerevisiae [1]; [6]): 0.742 ± 0.014
- protein stability index (Saccharomyces cerevisiae [1]; [7]): 0.2644 ± 0.00051
- protein stability index (Saccharomyces cerevisiae [1]; [8]): 0.309 ± 0.023
- protein stability index (Saccharomyces cerevisiae [1]; [9]): 0.547 ± 0.0037
- protein stability index (Saccharomyces cerevisiae [2]): 0.38 ± 0.059

Sequence: PALPQPMNPAPP
- protein stability index (Saccharomyces cerevisiae [1]; [3]): 0.656 ± 0.043
- protein stability index (Saccharomyces cerevisiae [1]; [4]): 0.722 ± 0.0094
- protein stability index (Saccharomyces cerevisiae [1]; [5]): 0.657 ± 0.014
- protein stability index (Saccharomyces cerevisiae [1]; [6]): 0.727 ± 0.015
- protein stability index (Saccharomyces cerevisiae [1]; [7]): 0.667 ± 0.022
- protein stability index (Saccharomyces cerevisiae [1]; [8]): 0.66 ± 0.016
- protein stability index (Saccharomyces cerevisiae [1]; [9]): 0.6734 ± 0.0059
- protein stability index (Saccharomyces cerevisiae [2]): 0.725 ± 0.032

Sequence: PALVVALLASVL
- protein stability index (Saccharomyces cerevisiae [1]; [3]): 0.584 ± 0.018
- protein stability index (Saccharomyces cerevisiae [1]; [4]): 0.646 ± 0.039
- protein stability index (Saccharomyces cerevisiae [1]; [5]): 0.505 ± 0.022
- protein stability index (Saccharomyces cerevisiae [1]; [6]): 0.60007 ± 0.00036
- protein stability index (Saccharomyces cerevisiae [1]; [7]): 0.347 ± 0.015
- protein stability index (Saccharomyces cerevisiae [1]; [8]): 0.386 ± 0.029
- protein stability index (Saccharomyces cerevisiae [1]; [9]): 0.504 ± 0.0057
- protein stability index (Saccharomyces cerevisiae [2]): 0.485 ± 0.011

Sequence: PCLPLTPMWTLF
- protein stability index (Saccharomyces cerevisiae [1]; [3]): 0.713 ± 0.034
- protein stability index (Saccharomyces cerevisiae [1]; [4]): 0.789 ± 0.021
- protein stability index (Saccharomyces cerevisiae [1]; [5]): 0.678 ± 0.0076
- protein stability index (Saccharomyces cerevisiae [1]; [6]): 0.7793 ± 0.0028
- protein stability index (Saccharomyces cerevisiae [1]; [7]): 0.3716 ± 0.0014
- protein stability index (Saccharomyces cerevisiae [1]; [8]): 0.42 ± 0.022
- protein stability index (Saccharomyces cerevisiae [1]; [9]): 0.611 ± 0.018
- protein stability index (Saccharomyces cerevisiae [2]): 0.493 ± 0.0072

Sequence: PFFVLFSLAFLF
- protein stability index (Saccharomyces cerevisiae [1]; [3]): 0.375 ± 0.018
- protein stability index (Saccharomyces cerevisiae [1]; [4]): 0.439 ± 0.033
- protein stability index (Saccharomyces cerevisiae [1]; [5]): 0.302 ± 0.04
- protein stability index (Saccharomyces cerevisiae [1]; [6]): 0.4886 ± 0.00064
- protein stability index (Saccharomyces cerevisiae [1]; [7]): 0.2698 ± 0.0019
- protein stability index (Saccharomyces cerevisiae [1]; [8]): 0.278 ± 0.017
- protein stability index (Saccharomyces cerevisiae [1]; [9]): 0.422 ± 0.015
- protein stability index (Saccharomyces cerevisiae [2]): 0.279 ± 0.07

Sequence: PLATSLIGLFVV
- protein stability index (Saccharomyces cerevisiae [1]; [3]): 0.663 ± 0.098
- protein stability index (Saccharomyces cerevisiae [1]; [4]): 0.716 ± 0.013
- protein stability index (Saccharomyces cerevisiae [1]; [5]): 0.522 ± 0.028
- protein stability index (Saccharomyces cerevisiae [1]; [6]): 0.661 ± 0.021
- protein stability index (Saccharomyces cerevisiae [1]; [7]): 0.273 ± 0.018
- protein stability index (Saccharomyces cerevisiae [1]; [8]): 0.298 ± 0.032
- protein stability index (Saccharomyces cerevisiae [1]; [9]): 0.4673 ± 0.0014
- protein stability index (Saccharomyces cerevisiae [2]): 0.433 ± 0.039

Sequence: PLLLFFFPRLLF
- protein stability index (Saccharomyces cerevisiae [1]; [3]): 0.579 ± 0.046
- protein stability index (Saccharomyces cerevisiae [1]; [4]): 0.62 ± 0.025
- protein stability index (Saccharomyces cerevisiae [1]; [5]): 0.535 ± 0.027
- protein stability index (Saccharomyces cerevisiae [1]; [6]): 0.6481 ± 0.0026
- protein stability index (Saccharomyces cerevisiae [1]; [7]): 0.39 ± 0.0054
- protein stability index (Saccharomyces cerevisiae [1]; [8]): 0.382 ± 0.019
- protein stability index (Saccharomyces cerevisiae [1]; [9]): 0.559 ± 0.025
- protein stability index (Saccharomyces cerevisiae [2]): 0.475 ± 0.024

Sequence: PLLPTPLTAPPP
- protein stability index (Saccharomyces cerevisiae [1]; [3]): 0.6705 ± 0.0022
- protein stability index (Saccharomyces cerevisiae [1]; [4]): 0.73469 ± 0.00013
- protein stability index (Saccharomyces cerevisiae [1]; [5]): 0.642 ± 0.031
- protein stability index (Saccharomyces cerevisiae [1]; [6]): 0.7031 ± 0.006
- protein stability index (Saccharomyces cerevisiae [1]; [7]): 0.659 ± 0.018
- protein stability index (Saccharomyces cerevisiae [1]; [8]): 0.671 ± 0.023
- protein stability index (Saccharomyces cerevisiae [1]; [9]): 0.6941 ± 0.0038
- protein stability index (Saccharomyces cerevisiae [2]): 0.385 ± 0.0092

Sequence: PLLSATLTRRLA
- protein stability index (Saccharomyces cerevisiae [1]; [3]): 0.622 ± 0.041
- protein stability index (Saccharomyces cerevisiae [1]; [4]): 0.665 ± 0.0088
- protein stability index (Saccharomyces cerevisiae [1]; [5]): 0.684 ± 0.0075
- protein stability index (Saccharomyces cerevisiae [1]; [6]): 0.692 ± 0.0072
- protein stability index (Saccharomyces cerevisiae [1]; [7]): 0.162 ± 0.015
- protein stability index (Saccharomyces cerevisiae [1]; [8]): 0.19 ± 0.03
- protein stability index (Saccharomyces cerevisiae [1]; [9]): 0.386 ± 0.0044
- protein stability index (Saccharomyces cerevisiae [2]): 0.475 ± 0.024

Sequence: PLTSPLLFPVFA
- protein stability index (Saccharomyces cerevisiae [1]; [3]): 0.272 ± 0.044
- protein stability index (Saccharomyces cerevisiae [1]; [4]): 0.338 ± 0.029
- protein stability index (Saccharomyces cerevisiae [1]; [5]): 0.269 ± 0.024
- protein stability index (Saccharomyces cerevisiae [1]; [6]): 0.376 ± 0.0081
- protein stability index (Saccharomyces cerevisiae [1]; [7]): 0.219 ± 0.011
- protein stability index (Saccharomyces cerevisiae [1]; [8]): 0.267 ± 0.017
- protein stability index (Saccharomyces cerevisiae [1]; [9]): 0.381 ± 0.033
- protein stability index (Saccharomyces cerevisiae [2]): 0.376 ± 0.015

Sequence: PPPLPFPTPPPS
- protein stability index (Saccharomyces cerevisiae [1]; [3]): 0.689 ± 0.0093
- protein stability index (Saccharomyces cerevisiae [1]; [4]): 0.764 ± 0.041
- protein stability index (Saccharomyces cerevisiae [1]; [5]): 0.644 ± 0.044
- protein stability index (Saccharomyces cerevisiae [1]; [6]): 0.702 ± 0.0074
- protein stability index (Saccharomyces cerevisiae [1]; [7]): 0.634 ± 0.025
- protein stability index (Saccharomyces cerevisiae [1]; [8]): 0.646 ± 0.032
- protein stability index (Saccharomyces cerevisiae [1]; [9]): 0.6663 ± 0.0036
- protein stability index (Saccharomyces cerevisiae [2]): 0.433 ± 0.038
